{
  "source": "paper doi:10.1101/2024.09.03.610921",
  "molecular_target": "RAGE^23-341-His-FLAG (extracellular part of RAGE) (human (cDNA from HEK293T cells)) (UniProt Q15109)",
  "sequence (Q15109 23-341)": "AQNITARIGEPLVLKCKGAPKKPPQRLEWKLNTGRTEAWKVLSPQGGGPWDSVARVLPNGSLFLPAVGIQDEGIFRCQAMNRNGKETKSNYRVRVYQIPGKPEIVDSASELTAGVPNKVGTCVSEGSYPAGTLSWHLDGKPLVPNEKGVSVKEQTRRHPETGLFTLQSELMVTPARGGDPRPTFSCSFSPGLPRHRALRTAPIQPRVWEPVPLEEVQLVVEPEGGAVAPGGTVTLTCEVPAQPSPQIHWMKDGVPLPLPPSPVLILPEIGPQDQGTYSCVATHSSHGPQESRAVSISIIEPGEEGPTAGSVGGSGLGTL",
  "experiment": "pull-down",
  "data": [
    {"substance": "core histone complex purified from bovines", "values": [
      {"measurement": "fold of histone complex precipitated, against RAGE^124-341", "value": 2.4, "unit": "fold"}
    ]}
  ]
}
